From patent US20030186329A1 (Scripps Research, published 2003)
acyl = not defined here

B1: peptide (III) of Table 1, LGGSGERARGALE (peptide)
peptide: LGGSGERARGALE
B2: peptide LGGRGRSANAILE (peptide)
peptide: LGGRGRSANAILE
B3: peptide LGQRGRSANAILE (peptide)
peptide: LGQRGRSANAILE
B4: peptide LGGSGRSANAILE (peptide)
peptide: LGGSGRSANAILE
B5: peptide LGGYGRSANAILE (peptide)
peptide: LGGYGRSANAILE
B6: peptide (II) of Table 1, LGGSGQRGRKALE (peptide)
peptide: LGGSGQRGRKALE
B7: peptide (VI) of Table 1, RGRK (peptide)
peptide: acyl-RGRK-NH2
modifications: reading uncertain; also: acylated at the amino terminus (acyl group not given here)
B8: peptide (VII) of Table 1, FRGRK (peptide)
peptide: acyl-FRGRK-NH2
modifications: reading uncertain; also: acylated at the amino terminus (acyl group not given here)
B9: peptide GSGKS (peptide)
peptide: acyl-GSGKS-NH2
modifications: reading uncertain; also: acylated at the amino terminus (acyl group not given here)
B10: peptide SGRSA (peptide)
peptide: acyl-SGRSA-NH2
modifications: reading uncertain; also: acylated at the amino terminus (acyl group not given here)
B11: peptide LGGSGRNAQVRLE (peptide)
peptide: LGGSGRNAQVRLE
B12: peptide LGGSGRSATRDLE (peptide)
peptide: LGGSGRSATRDLE
B13: peptide (I), native cleavage sequence from plasminogen (peptide)
peptide: KKSPGRVVGGSVAH
B14: peptide (IV) of Table 1, LGGSGHYGRSGLE (peptide)
peptide: LGGSGHYGRSGLE
B15: peptide LGGSGRKASLSLE (peptide)
peptide: LGGSGRKASLSLE
B16: peptide SGRS (peptide)
peptide: acyl-SGRS-NH2
modifications: reading uncertain; also: acylated at the amino terminus (acyl group not given here)
B17: peptide (V) of Table 1, YGRS (peptide)
peptide: acyl-YGRS-NH2
modifications: reading uncertain; also: acylated at the amino terminus (acyl group not given here)
B18: peptide SGKS (peptide)
peptide: acyl-SGKS-NH2
modifications: reading uncertain; also: acylated at the amino terminus (acyl group not given here)

Tests used:
[1] = target: tissue plasminogen activator (t-PA) (human, UniProt P00750 36-562, limits assumed); assay: cell-based or functional assay
[2] = target: urokinase-type plasminogen activator (u-PA) (human, UniProt P00749 21-431, limits assumed); assay: cell-based or functional assay

tissue plasminogen activator (t-PA), sequence (P00750 36-562 limits assumed): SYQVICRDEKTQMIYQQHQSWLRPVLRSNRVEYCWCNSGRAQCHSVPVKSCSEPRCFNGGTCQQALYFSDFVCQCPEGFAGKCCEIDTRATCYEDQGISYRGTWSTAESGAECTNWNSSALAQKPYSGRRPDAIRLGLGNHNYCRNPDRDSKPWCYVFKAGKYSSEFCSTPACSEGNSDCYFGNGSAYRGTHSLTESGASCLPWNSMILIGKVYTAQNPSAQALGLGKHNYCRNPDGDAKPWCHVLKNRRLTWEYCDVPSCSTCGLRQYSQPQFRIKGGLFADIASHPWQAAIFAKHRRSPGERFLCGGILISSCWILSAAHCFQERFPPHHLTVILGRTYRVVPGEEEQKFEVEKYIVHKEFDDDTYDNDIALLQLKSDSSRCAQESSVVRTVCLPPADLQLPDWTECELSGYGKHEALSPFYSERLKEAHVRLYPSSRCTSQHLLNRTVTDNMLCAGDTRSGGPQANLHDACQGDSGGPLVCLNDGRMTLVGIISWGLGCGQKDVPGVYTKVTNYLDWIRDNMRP

Binder	t-PA:u-PA Selectivity [1]	u-PA:t-PA Selectivity [2]
B1	13	–
B2	5.2	0.019
B3	19	0.005
B4	0.016	63
B5	5.7	0.018
B6	47	–
B7	57	–
B8	78	–
B9	0.008	121
B10	0.05	20
B11	0.011	89
B12	0.06	16
B13	0.33	3
B14	21	–
B15	0.032	31
B16	0.3	3.3
B17	17	–
B18	0.04	23
